Columns and labels:
[1] = target: activin; assay: cell-based or functional assay
[2] = target: growth/differentiation factor-8 (GDF-8) (UniProt O14793); assay: cell-based or functional assay
Chain of UniProt O14793 (O14793 267-375 limits assumed): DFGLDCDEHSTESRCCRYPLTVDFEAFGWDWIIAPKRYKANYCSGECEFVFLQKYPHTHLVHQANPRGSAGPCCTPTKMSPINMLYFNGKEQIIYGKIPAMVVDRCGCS

inhibition of elevation in standardized luciferase activity due to activin ((CAGA)12-MLP-Luc reporter assay, HEK293 cells) [1]: 100%
inhibition of elevation in standardized luciferase activity due to GDF-8 ((CAGA)12-MLP-Luc reporter assay, HEK293 cells) [2]: 100%
Substance: follistatin
